Experimental data as given in US20100322950.

Assays:
[1] = target: tissue inhibitor of matrix metalloproteinase-1 (TIMP-1) (UniProt P01033)
[2] = system: recombinant human osteopontin (OPN), full-length
Chain of recombinant human osteopontin (OPN), full-length (chain, as listed by the source): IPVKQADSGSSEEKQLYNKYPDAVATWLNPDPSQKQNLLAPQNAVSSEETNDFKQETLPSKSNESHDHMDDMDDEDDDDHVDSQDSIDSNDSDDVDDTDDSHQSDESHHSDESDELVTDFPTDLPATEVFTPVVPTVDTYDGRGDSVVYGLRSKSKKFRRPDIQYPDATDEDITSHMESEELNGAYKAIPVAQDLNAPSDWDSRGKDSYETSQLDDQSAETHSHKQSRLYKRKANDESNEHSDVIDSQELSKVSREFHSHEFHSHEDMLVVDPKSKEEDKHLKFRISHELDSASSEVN

Chain of human matrix metalloproteinase-9 (MMP-9) (Calbiochem) (chain, as listed by the source): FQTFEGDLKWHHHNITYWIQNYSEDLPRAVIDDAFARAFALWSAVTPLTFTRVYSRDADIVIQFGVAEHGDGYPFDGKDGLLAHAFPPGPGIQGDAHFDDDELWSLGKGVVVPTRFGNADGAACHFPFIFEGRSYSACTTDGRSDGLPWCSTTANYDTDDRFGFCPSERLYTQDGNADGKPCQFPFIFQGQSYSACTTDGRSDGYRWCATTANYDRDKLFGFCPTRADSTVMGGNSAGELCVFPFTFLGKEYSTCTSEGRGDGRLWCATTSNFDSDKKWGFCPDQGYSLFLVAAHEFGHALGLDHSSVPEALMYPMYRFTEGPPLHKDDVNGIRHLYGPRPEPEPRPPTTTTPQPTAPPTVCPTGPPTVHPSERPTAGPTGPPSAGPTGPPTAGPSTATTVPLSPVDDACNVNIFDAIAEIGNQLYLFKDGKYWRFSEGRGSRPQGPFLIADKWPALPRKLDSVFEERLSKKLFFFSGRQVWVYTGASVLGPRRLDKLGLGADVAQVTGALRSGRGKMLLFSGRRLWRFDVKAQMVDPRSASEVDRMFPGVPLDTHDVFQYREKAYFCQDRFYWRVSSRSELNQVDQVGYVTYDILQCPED
Chain of tissue inhibitor of matrix metalloproteinase-1 (TIMP-1) (P01033 24-207): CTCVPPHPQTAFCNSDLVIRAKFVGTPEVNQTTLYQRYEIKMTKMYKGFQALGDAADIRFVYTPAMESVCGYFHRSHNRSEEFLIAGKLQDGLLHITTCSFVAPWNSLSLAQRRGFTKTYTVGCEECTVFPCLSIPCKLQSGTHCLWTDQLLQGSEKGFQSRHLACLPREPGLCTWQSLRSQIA

## human matrix metalloproteinase-9 (MMP-9) (Calbiochem)
[1]
  MMP-9 cleavage of OPN (formation of the OPN-5 kD fragment), TIMP-1 added to the reaction: could not be detected in cleavage reactions partially inhibited by the concomitant addition of EDTA, a naturally-occurring inhibitor of MMP-9 (tissue inhibitor of matrix metalloproteinase-1, or TIMP-1), or the hydroxamate MMP-9 inhibitor I
[2]
  in vitro proteolytic cleavage of OPN (SDS-PAGE, N-terminal microsequencing, western blot): Recombinant MMP-9 cleaved OPN at two predominant sites in vitro, residues 166 and 210, resulting in 4 identified fragments
